Results: article PMC1831719, “Elucidating the Ticking of an In Vitro Circadian Clockwork” (PLoS Biology, 2007)

Target: the molecule itself
Experiment: negative-stain electron microscopy with image classification; aliquots every 3 h from the oscillating KaiA/KaiB/KaiC mixture (50 ng/ul KaiA, 50 ng/ul KaiB, 200 ng/ul KaiC, 1 mM ATP, 30 °C); 0.75% uranyl formate; particles sorted into four meta classes at seven phases

B1: KaiC (natural protein, S. elongatus, UniProt Q79PF4 1-519, looked up)
chain: MTSAEMTSPNNNSEHQAIAKMRTMIEGFDDISHGGLPIGRSTLVSGTSGTGKTLFSIQFLYNGIIEFDEPGVFVTFEETPQDIIKNARSFGWDLAKLVDEGKLFILDASPDPEGQEVVGGFDLSALIERINYAIQKYRARRVSIDSVTSVFQQYDASSVVRRELFRLVARLKQIGATTVMTTERIEEYGPIARYGVEEFVSDNVVILRNVLEGERRRRTLEILKLRGTSHMKGEYPFTITDHGINIFPLGAMRLTQRSSNVRVSSGVVRLDEMCGGGFFKDSIILATGATGTGKTLLVSRFVENACANKERAILFAYEESRAQLLRNAYSWGMDFEEMERQNLLKIVCAYPESAGLEDHLQIIKSEINDFKPARIAIDSLSALARGVSNNAFRQFVIGVTGYAKQEEITGLFTNTSDQFMGAHSITDSHISTITDTIILLQYVEIRGEMSRAINVFKMRGSWHDKAIREFMISDKGPDIKDSFRNFERIISGSPTRITVDEKSELSRIVRGVQEKGPES
notes: KaiC, circadian clock protein of Synechococcus elongatus; In the cycling reaction KaiC oscillates between hypo- and hyperphosphorylated forms (sites T426, S431, T432); also called KaiC hexamer; P-KaiC; source: E. coli, purified
- stoichiometry N: 6
